Literature values in publication PMC12756081.

Assays:
IL-18Rα (Homo sapiens) = IL-18Rα (Homo sapiens) (UniProt Q13478); conditions: cited from earlier work
[1] = target: IL-18Rα/IL-18Rβ (Homo sapiens) (UniProt Q13478); conditions: cited from earlier work
Sequence of IL-18Rα/IL-18Rβ (Homo sapiens) (Q13478 19-541, chain 1 of 2): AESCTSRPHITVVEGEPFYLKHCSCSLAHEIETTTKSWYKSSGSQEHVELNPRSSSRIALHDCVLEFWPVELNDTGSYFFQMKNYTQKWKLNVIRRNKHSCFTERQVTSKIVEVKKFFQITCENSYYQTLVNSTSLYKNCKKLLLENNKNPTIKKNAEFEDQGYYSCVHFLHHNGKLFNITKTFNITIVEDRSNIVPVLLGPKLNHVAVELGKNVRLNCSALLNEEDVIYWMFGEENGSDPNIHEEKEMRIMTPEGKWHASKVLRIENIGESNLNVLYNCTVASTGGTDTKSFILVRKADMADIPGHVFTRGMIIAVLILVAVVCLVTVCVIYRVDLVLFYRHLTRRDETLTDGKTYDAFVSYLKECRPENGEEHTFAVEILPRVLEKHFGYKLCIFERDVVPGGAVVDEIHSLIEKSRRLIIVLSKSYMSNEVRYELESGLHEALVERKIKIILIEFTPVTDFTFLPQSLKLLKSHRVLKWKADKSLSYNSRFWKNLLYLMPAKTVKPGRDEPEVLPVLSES
Sequence of IL-18Rα/IL-18Rβ (Homo sapiens) (O95256 20-599, chain 2 of 2, further chain): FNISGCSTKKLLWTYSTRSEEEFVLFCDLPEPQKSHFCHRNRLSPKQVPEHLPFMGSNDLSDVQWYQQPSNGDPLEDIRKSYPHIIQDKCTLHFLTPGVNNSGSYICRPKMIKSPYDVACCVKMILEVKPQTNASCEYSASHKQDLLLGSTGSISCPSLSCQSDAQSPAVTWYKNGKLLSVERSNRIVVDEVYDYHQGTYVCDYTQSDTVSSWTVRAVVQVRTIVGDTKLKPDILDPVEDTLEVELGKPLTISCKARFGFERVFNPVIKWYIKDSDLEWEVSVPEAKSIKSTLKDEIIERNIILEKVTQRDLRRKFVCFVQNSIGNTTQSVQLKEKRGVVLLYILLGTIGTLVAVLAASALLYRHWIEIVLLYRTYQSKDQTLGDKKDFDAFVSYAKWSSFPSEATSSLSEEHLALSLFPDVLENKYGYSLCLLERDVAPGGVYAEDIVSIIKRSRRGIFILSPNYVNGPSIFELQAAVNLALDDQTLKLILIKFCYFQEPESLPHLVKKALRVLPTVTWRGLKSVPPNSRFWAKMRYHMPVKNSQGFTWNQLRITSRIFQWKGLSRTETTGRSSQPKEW

Sequence of IL-18 (Q14116 37-193): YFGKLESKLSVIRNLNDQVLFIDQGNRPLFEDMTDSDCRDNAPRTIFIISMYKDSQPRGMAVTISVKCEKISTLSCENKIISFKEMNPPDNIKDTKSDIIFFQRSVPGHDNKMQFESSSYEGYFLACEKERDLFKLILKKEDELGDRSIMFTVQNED
Sequence of IL-18Rα (Homo sapiens) (Q13478 19-541): as the sequence (Q13478 19-541, chain 1 of 2) above

Which Kd (IL-18Rα (Homo sapiens)) does the source give for IL-18 (from UniProt Q14116) here?
Its Kd is 30 nM.

And the Kd [1]?
Its Kd is 1 nM.
